Residue numbers refer to the chain shown, from its start.
B1: E. coli MtlR fused with His6-tag (ecHisMtlR), wild type (natural protein)
chain: MVDQAQDTLRPNNRLSDMQATMEQTQAFENRVLERLNAGKTVRSFLITAVELLTEAVNLLVLQVFRKDDYAVKYAVEPLLDGDGPLGDLSVRLKLIYGLGVINRQEYEDAELLMALREELNHDGNEYAFTDDEILGPFGELHCVAALPPPPQFEPADSSLYAMQIQRYQQAVRSTMVLSLTELISKISLKKAFQK
notes: Mannitol operon repressor MtlR of E. coli (cloned from genomic DNA of MG1655, K-12); ecHisMtlR is about 23 kDa with the tag; probably the whole protein (about 23 kDa with tag); Homodimer by SEC-MALS; also called wild-type His-MtlR; ecMtlR
B2: E. coli HPr labelled with the dye NT-647 (natural protein)
chain: not shown
modifications: dye NT-647 coupled by N-hydroxysuccinimide (NHS) to lysine residues
notes: Histidine phosphocarrier protein HPr of E. coli, 9 kDa; Same protein as m2, fluorescently labelled for microscale thermophoresis; also called labeled HPr; source: E. coli, overexpressed, purified (MonoQ, Superdex 75), then labelled with NT-647-NHS
B3: E. coli histidine phosphocarrier protein HPr (dephosphorylated, untagged) (natural protein)
chain: not shown
notes: Histidine phosphocarrier protein HPr of E. coli, 9 kDa; Untagged; probably the whole protein (9 kDa); also called ecHPr; source: E. coli, overexpressed, purified (MonoQ, Superdex 75); for the complex overexpressed in E. coli GI698 harboring pSP100 and co-purified with MtlR

Experiments:
[1] = molecular target: the molecule itself; test: SEC-MALS; Superdex 200 increase 5/150 GL, binding buffer as mobile phase, 0.2 ml/min; HisMtlR alone (40 μg) and in complex with HPr (60 μg); concentration by refractive index
[2] = molecular target: B1; test: MST; Monolith NT.115; serial dilutions of MtlR variants mixed 1:1 with NT-647-labelled HPr; 20 mM Tris-HCl pH 7.5, 50 mM NaCl, 2 mM β-mercaptoethanol, 0.05% BSA, 0.05% Tween-20, 5% glycerol; conditions: both partners purified
His-MtlR(E108S) [3] = molecular target: T1, His-MtlR(E108S) (E. coli, UniProt P0AF10 1-195, E108S); test: as above; conditions: both partners purified
T1 construct: Mannitol operon repressor MtlR of E. coli, made by site-directed mutagenesis of pET-HisMtlR; also called E108S single mutant
T1 sequence: B1 chain with E108S

His-MtlR(E140S) [4] = molecular target: T2, His-MtlR(E140S) (E. coli, UniProt P0AF10 1-195, E140S); test: as above; conditions: both partners purified
T2 construct: Mannitol operon repressor MtlR of E. coli, made by site-directed mutagenesis of pET-HisMtlR; also called E140S single mutant
T2 sequence: B1 chain with E140S

[5] = molecular target: B1; test: SEC; gel filtration chromatography of purified MtlR and HPr from E. coli and V. vulnificus (Supplementary Fig. 4); conditions: both partners purified
His-MtlR(E108S) [6] = molecular target: T1, His-MtlR(E108S); test: pull-down; His-MtlR (200 μg) mixed with 20 μl of EI-overproducing cell lysate, 200 μg of HPr, 2 mM MgCl2 and 50 μl of Talon resin, in the absence or presence of 2 mM PEP; SDS-PAGE, Coomassie; conditions: both partners purified
His-MtlR(A115W) = molecular target: T3, His-MtlR(A115W) (E. coli, UniProt P0AF10 1-195, A115W); test: pull-down; His-MtlR (200 μg) mixed with HPr (200 μg) in 20 mM Tris-HCl pH 7.5, 50 mM NaCl, 2 mM β-mercaptoethanol, 5% glycerol; Talon metal affinity chromatography, 3 washes with 10 mM imidazole, elution with 150 mM imidazole; SDS-PAGE, Coomassie; conditions: both partners purified
T3 construct: Mannitol operon repressor MtlR of E. coli, made by site-directed mutagenesis of pET-HisMtlR; also called A115W mutant of His-tagged ecMtlR
T3 sequence: B1 chain with A115W

His-MtlR(L112W) = molecular target: T4, His-MtlR(L112W) (E. coli, UniProt P0AF10 1-195, Leu112 was mutated to Trp); test: as above; conditions: both partners purified
T4 construct: Mannitol operon repressor MtlR of E. coli, made by site-directed mutagenesis of pET-HisMtlR; also called Leu112 mutated to Trp
T4 sequence: B1 chain with L112W

His-MtlR(E140S) [7] = molecular target: T2, His-MtlR(E140S); test: as above; conditions: both partners purified

B1
stoichiometry N [1]: 2

B2
Kd [2]: ~21 nM | Kd (His-MtlR(E108S) [3]): 1420 ± 80 nM | Kd (His-MtlR(E140S) [4]): 1530 ± 110 nM

B3
binding result [5]: binds | binding result (His-MtlR(E108S) [6]): binds | binding result (His-MtlR(A115W)): binds | binding result (His-MtlR(L112W)): binds | binding result (His-MtlR(E140S) [7]): binds
